Here are results for 16 sequences from the nanobody polyreactivity screen of Harvey et al. (2022).

This data set in a line: yeast display, Sf9 membrane polyspecificity reagent, FACS + sequencing; frameworks hold sequencing errors. The method, boiled down: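 Nanobodies from a synthetic yeast display library (Saccharomyces cerevisiae BJ5465), induced 36–48 hours with galactose, were stained 1 hour at 4 °C with 10% biotinylated, detergent-solubilized Sf9 membrane reagent, enriched on streptavidin microbeads, then FACS-sorted. Anti-HA (expression) and streptavidin (reagent binding) fluorescence set low and high (top ~1%) gates. Polyreactivity labels come from the gate of origin. Genes were colony-PCR amplified, MiSeq 2 × 250 sequenced and filtered by CDR length.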
As to “QVHLVESGGGLVQAGGSLRLSCAASGRTFILNAMGWYRQAPGKERELVAAISWSGGSTYYADSVKGRFTISRDNAKNTVYLQMNSLKPEDTAVYYCAKDSPGDGIGYGYWGQGTQVTVSS”, the “polyreactivity (PSR sort gate)” value is on record as “low polyreactivity”.
Consider “QVHLVESGGGLVHAGGRLRLSCAASGRIFGLNAMGWYRQAPGKERELVAAIDIIGGSTYYADSVKGRFTISRDNAKNTVYLQMNSLIPEDTAVFYCAAEADFWRFVEFDYWGQGTQVTVSS”, for which the “polyreactivity (PSR sort gate)” value is “low polyreactivity”.
With “QVQLVESGGGLVQAGGSLRLSCAASGSTFVRNAMGWYRQAPGKERELVAAITWSTGTTYYADSVKGRFTISRDNAKNTVYLQMNSLKPEDTAVYYCAADIYTELFKHDYWGQGTQVTVSS”, the “polyreactivity (PSR sort gate)” value was “low polyreactivity”.
In the case of “HAQQQESGGGLVQAGGSLRRSCAASGSIFRFSGRGWYRLAPGKERELVASIGFGSITYYADRVKGRFTISRDNANNTVYLQMNSLKPEDTAVYYCAVQVQDESWLDYWGQGTQVTVSC”, the “polyreactivity (PSR sort gate)” value is given as “low polyreactivity”.
On to “QVQLVESGGGLVQAGGSLRLSCAASGSIFEPYAMGWYRQAPGKERELVAAISSDGTTNYADSVKGRFTISRDNAKNTVYLQMNSLKPEDTAVYYCAADVFNWGYYYWGQGTQVTVSS”, for which the “polyreactivity (PSR sort gate)” value is listed as “low polyreactivity”.
For the sequence “QFQLVESGGGLVQAGGSLRLSCAASGSTIPRNAMGWYRQAPGKERELVAVITGSGGSTYYADSVKGRFTISRDNAKNTVYLQMNSLKPEDTAVYYCAAKYRFYGFDYWGQGTQLTVSS”, the “polyreactivity (PSR sort gate)” value is “high polyreactivity”.
In the case of “QVQLVESGGGLVQAGGSLRLSCASSGSIGYYAMGWYRQAPGKERELVAAIDWSGGDTYYADSVKGRFTISRDNAKNTVYLQMNSLKPEDTAVYYCAADAGRYLPDCTYDYWGQGTQVTVSS”, the “polyreactivity (PSR sort gate)” value is “low polyreactivity”.
Turning to “QVQLVESGGGLVQAGGSLRLSCAASGSIFPSNAMGWYRQAPGKERELVAAISSSGGRTYYADSVKGRFTISRDNAKNTVYLQMNSLKPEDTAVYYCAAKYTVYGVGYYYWGQGTQVTVSS”, the “polyreactivity (PSR sort gate)” value is recorded as “high polyreactivity”.
“QVQLVESGGGLVQAGGSLRLSCAASGFTLRRYAMGWYRQAPGKERELVATITSGGTTDYADSVKGRFTISRDNAKNTVYLQMNSLKPEDTAVYYCAAYRRGAYYYWGQGTQVTVSS”: the “polyreactivity (PSR sort gate)” value is “high polyreactivity”.
“QDQLVESGGGLVQAGGSLRLSCAASGYTFPSYAMGWYRQAPGKEREFVAAIDSSGGSTNYADSVKGRFTISRDNAKNTVYLQMNSLKPEETAVYYCAREYSSGYWVRHLFYYWGQGTKVTVSS”: the “polyreactivity (PSR sort gate)” value was “low polyreactivity”.
In the case of “QVQLVESGGGLVQAGGSLRLSCAASGIIFVYYDMGWYRQAPGKERELVASISRGGSTYYADSVKGRFTISRDNAKNTVYLQMNSLKPEDTAVYYCAAVPSYLGYWGQGTQVTVSS”, the “polyreactivity (PSR sort gate)” value is on record as “high polyreactivity”.
“QVQLVESGGGLVQAGGSLRLSCAASGRIFYVYTLGWYRQAPGKERELVAAITSGGSTNYADSVKGRFTISRDNAKNTVYLQMNSLKPEDTAVYFCAKKAWVIYNRKFSSGYDYWGQGTQVTVSS”: the “polyreactivity (PSR sort gate)” value is recorded as “low polyreactivity”.
With “QVQLVESGGGLVQAGGSLRLSCAASGRIFSNNAMGWYRQAPGKERELVATITGSGGRTYYADSVKGRFTISRDIAKNSVYLQMNSLKPEDTAVYYCNADLYSYYWRVRYGLDYWGQGTQVTVSS” the entry was “high polyreactivity”.
With “QVQLVESGGGLVQAGGSLRLSCAASGSTFEYNAMGWYRQAPGKERELVASSTNYADSVKGRFTISRDNAKNTVYLQMNSLKPEDTAVYYCAREQGVNRNHDYRGQGTQVTVSS”, the “polyreactivity (PSR sort gate)” value is listed as “low polyreactivity”.
On to “QVQLVESGGGLVQEGGSLRLSCAASGITFGRYAMGWYRQAPGKERELVAAITTRGGSTYYADSVKGRFTISRDNAKNTVYLQMNSLKPEDTAVYYCAARVPGVSVKNDYCGQGTQVTVSS”, for which the “polyreactivity (PSR sort gate)” value is listed as “high polyreactivity”.
Next, “QVQLVESGGGLVQAGGSLRLSCAASGSTFGYYAMGWYRQAPGKERELVATITKRGGSTYADSVKGRFTISRDNAKNTVYLQMNSLKPEDTAVYYCAKLPFEDYDYWGQGTQVTVSS”: “low polyreactivity”.
